# T1: Macaca fascicularis PD-1 (Macaca fascicularis)
# T1 construct: also called cyno PD-1
# T1 chain: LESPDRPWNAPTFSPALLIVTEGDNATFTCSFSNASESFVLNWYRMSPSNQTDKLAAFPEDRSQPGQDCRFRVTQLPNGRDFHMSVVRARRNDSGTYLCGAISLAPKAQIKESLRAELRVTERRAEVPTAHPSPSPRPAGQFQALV
# Tests used:
# [1] = target: T2, rh-PD-1 recombinant protein (human, UniProt Q15116 25-170, limits assumed); test: ELISA on PD-1 protein
# T2 construct: also called human-derived PD-1; PD-1 protein
# [2] = target: T2, rh-PD-1 recombinant protein; test: ELISA, PD-1 coated at 1 ug/ml, goat anti-human HRP detection
# Procedure: (§1) 1 ug /ml of human-derived PD-1, Macaca fascicularis PD-1, and mouse-derived PD-1 (Sinobiological) in the carbonate buffer solution (0.05 M PH9) were prepared and used to coat the wells of the 96-well flat-bottom plates at 4° C. overnight. The next day, solution was removed from the wells and the wells were washed three times with a washing buffer. PBS solution containing 3% BSA was added to block the wells for 20 minutes. […] The mixture was incubated at room temperature for 1 hour and then washed three times with a washing buffer. A HRP conjugated goat anti human antibody (Jackson Immunoresearch) was first diluted to 1: 10000 with the washing buffer and then added to the wells to incubate at room temperature for 1 hour. After washing three times with the washing buffer, 50 ul TMB substrate solution was added to the wells to develop the color. After 10 minutes at room temperature, the color development reaction was terminated with 25 ul 0.5M sulfuric acid solution and the absorbance was read at 450 nm.
# Macaca fascicularis PD-1 = target: T1, Macaca fascicularis PD-1; test: as above
# Procedure: as §1
# [3] = target: T2, rh-PD-1 recombinant protein; test: ELISA, rh-PD-1 coated at 1 ug/ml, antibody at 1 ug/ml
# Procedure: The next day, solution was removed from the wells and the wells were washed three times with a washing buffer (PBS+0.5% TWEEN). PBS solution containing 3% BSA was added to the wells to block for 20 minutes. After washing three times with the washing buffer, 100 ul of each antibody clone was added at 1 ug/ml and incubated at room temperature for 1 hour. After three washes with the washing buffer, HRP cross-linked goat anti mouse antibody (Jackson Immunoresearch) was diluted in the washing buffer 1: 0000, and added to the sample wells and incubated at room temperature for 1 hour. After three washes with the washing buffer, 50 ul TMB (tetramethyl benzidine) substrate solution was added to develop the color. The color reaction was terminated after the reaction was continued for 10 minutes at room temperature by adding 25 ul of 0.5M sulfuric acid solution to the reaction mixture. The absorbance was then measured at 450 nm.
# T2 sequence (Q15116 25-170 limits assumed): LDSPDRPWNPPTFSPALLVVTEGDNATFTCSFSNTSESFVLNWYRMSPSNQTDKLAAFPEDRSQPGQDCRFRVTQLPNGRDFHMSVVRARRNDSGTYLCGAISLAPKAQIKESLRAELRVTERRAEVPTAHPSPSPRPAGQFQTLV
EC50 [1] [nM],Binder,other results
0.338,"H1L1 (antibody, V domains shown, also called original antibody 1 (heavy chain 1, light chain 1)) VH: QGQLQQSGAELVRPGASVTLTCKASGYTFTDYEMHWVKQTPIHGLEWIGVIESETGGTAYNQKFKGKAKLTADKSSSTAYMELRSLTSEDSAVYYCTREGITTVATTYYWYFDVWGTGTTVTVSS VL: DVLMTQTPLSLPVSLGDQASISCRSSQSIVHSNGNTYLEWYLQKPGQSPELLIYKVYNRFSGVPDRFSGSGSGTDFTLKISRVEAEDLGVYYCFQGSHVPFTFGSGTKLEIK",–
0.426,"H10L10 (antibody, V domains shown, also called original antibody 10 (heavy chain 10, light chain 10)) VH: QVQLQQSGAELVRPGASVTLSCKASGYTFTDYEMHWVKQTPVHGLEWIGAIDPETGGAAYNQKFKGKAILTADKSSSTAYMELRSLTSEDSAVYYCTREGITTSVVTYYWYFDVWGTGTTVTVSS VL: DVLMTQTPLSLPVSLGDQASISCRSSQSIVHSNGNTYLEWYLQKPGQSPKLLIYKVSNRFSGVPDRFSGSGSGTDFTLRISRVEPEDLGVYYCFQGSHVPLTFGSGTKLEIK",–
0.528,"H10L1 (antibody, V domains shown, also called recombinant antibody H10L1 (heavy chain 10, light chain 1)) VH: QVQLQQSGAELVRPGASVTLSCKASGYTFTDYEMHWVKQTPVHGLEWIGAIDPETGGAAYNQKFKGKAILTADKSSSTAYMELRSLTSEDSAVYYCTREGITTSVVTYYWYFDVWGTGTTVTVSS VL: DVLMTQTPLSLPVSLGDQASISCRSSQSIVHSNGNTYLEWYLQKPGQSPELLIYKVYNRFSGVPDRFSGSGSGTDFTLKISRVEAEDLGVYYCFQGSHVPFTFGSGTKLEIK",–
–,"humanized antibody Clone 41 (antibody, V domains shown, Humanized antibody; also called hu41) VH: QGQLVQSGAEVKKPGASVKVSCKASGYTFTDYEMHWVRQAPGQGLEWMGVIESETGGTAYNQKFQGRVTLTADKSSSTAYMELSSLRSEDTAVYYCTREGITTVATTYYWYFDVWGQGTLVTVSS VL: DVVMTQSPLSLPVTLGQPASISCRSSQSIVHSNGNTYLEWYLQKPGQSPQLLIYKVSNRFSGVPDRFSGSGSGTDFTLKISRVEAEDVGVYYCFQGSHVPLTFGQGTKLEIK",binding result [2]: binds; binding result (Macaca fascicularis PD-1): binds
0.27,"H1L10 (antibody, V domains shown, also called recombinant antibody H1L10 (heavy chain 1, light chain 10)) VH: QGQLQQSGAELVRPGASVTLTCKASGYTFTDYEMHWVKQTPIHGLEWIGVIESETGGTAYNQKFKGKAKLTADKSSSTAYMELRSLTSEDSAVYYCTREGITTVATTYYWYFDVWGTGTTVTVSS VL: DVLMTQTPLSLPVSLGDQASISCRSSQSIVHSNGNTYLEWYLQKPGQSPKLLIYKVSNRFSGVPDRFSGSGSGTDFTLRISRVEPEDLGVYYCFQGSHVPLTFGSGTKLEIK",–
–,"Clone 11 (antibody, V domains shown, Mouse hybridoma antibody; also called antibody candidate Clone 11) VH: QVTLKESGPGILQPSQTLSLTCSFSGFSLSTFGMGVGWIRQPSGKGLEWLAHIWWDDDKYYNPALKSRLTISKNTSKNQVFLKIANVDTEDTATYYCARIEERFRWYFDVWGTGTTVTVSS VL: RAGWTQESALTTSPGETVTLTCRSSTGAITTSNYANWVQEKPDHLFTGLIGGTNNRAPGVPARFSGSLIGDKAALTITGAQTEDEAIYFCALWYSNHWVFGGGTKLTVL",binding result [3]: binds

# From patent US20190023782A1 (SHANGHAI JUNSHI BIOSCIENCES, published 2019)
